# Laboratory results taken from patent US12195506B2, “Immunotherapy with A*01 restricted peptides and combination of peptides against cancers and related methods” (Immatics Biotechnologies GmbH, priority 2018, dated 2025).
# Molecular target: HLA-A*01:01 (Homo sapiens, UniProt P04439, A114D/A174V/A182V/D101N/D185E/E176A/E190D/L180R/Q94H/R68K/S129P/T187R/V100A/V91M/W191G)
# Assay: MHC binding assay: UV-ligand exchange, ELISA of stabilized MHC complexes (peptide exchange yield)
# Details: binding to HLA-A*01:01, UV-ligand exchange
# From the text: Candidate peptides for T cell based therapies according to the present invention were further tested for their MHC binding capacity (affinity). The individual peptide-MHC complexes were produced by UV-ligand exchange, where a UV-sensitive peptide is cleaved upon UV-irradiation and exchanged with the peptide of interest as analyzed. Only peptide candidates that can effectively bind and stabilize the peptide-receptive MHC molecules prevent dissociation of the MHC complexes. To determine the yield of the exchange reaction, an ELISA was performed based on the detection of the light chain (β2m) of stabilized MHC complexes. The assay was performed as generally described in Rodenko et al. (Rodenko et al., 2006)
# 96 well MAXISorp plates (NUNC) were coated over night with 2 ug/ml streptavidin in PBS at room temperature, washed 4× and blocked for 1 h at 37° C. in 2% BSA containing blocking buffer. Refolded HLA-A*02:01/MLA-001 monomers served as standards, covering the range of 15-500 ng/ml. Peptide-MHC monomers of the UV-exchange reaction were diluted 100-fold in blocking buffer. Samples were incubated for 1 h at 37° C., washed four times, incubated with 2 ug/ml HRP conjugated anti-β2m for 1 h at 37° C., washed again and detected with TMB solution that is stopped with […]. Absorption was measured at 450 nm.
row,Peptide exchange,Substance
1,++ (>20% = ++),347 (SADHPGLTF; listed as Homo sapiens) [compound 347]
2,++ (>20% = ++),391 (GSNPARYEF; listed as Homo sapiens) [compound 391]
3,+++ (>50 = +++),269 (LPSPAATIWDY; listed as Homo sapiens) [compound 269]
4,++++ (>75% = ++++),291 (TSDVTGSLTY; listed as Homo sapiens) [compound 291]
5,++ (>20% = ++),281 (YPDLSELLM; listed as Homo sapiens) [compound 281]
6,++ (>20% = ++),273 (CGPNEINHFY; listed as Homo sapiens) [compound 273]
7,+++ (>50 = +++),302 (FYLSTPENYHY; listed as Homo sapiens) [compound 302]
8,+++ (>50 = +++),327 (IMLSVDQHLY; listed as Homo sapiens) [compound 327]
9,++ (>20% = ++),299 (EVDSVALSL; listed as Homo sapiens) [compound 299]
10,+++ (>50 = +++),295 (GQRLDEAMISY; listed as Homo sapiens) [compound 295]
11,+++ (>50 = +++),380 (VACGNNPVY; listed as Homo sapiens) [compound 380]
12,+++ (>50 = +++),313 (VTDGTHTDFY; listed as Homo sapiens) [compound 313]
13,++ (>20% = ++),270 (DLKIDLAAQY; listed as Homo sapiens) [compound 270]
14,++++ (>75% = ++++),280 (TTEMVSNESVDY; listed as Homo sapiens) [compound 280]
15,++++ (>75% = ++++),261 (MTEGSTVNTEY; listed as Homo sapiens) [compound 261]
16,++ (>20% = ++),323 (KTLQKPVLPLY; listed as Homo sapiens) [compound 323]
17,++ (>20% = ++),310 (KAFQELGVRY; listed as Homo sapiens) [compound 310]
18,++ (>20% = ++),383 (PPDHAVGRTKY; listed as Homo sapiens) [compound 383]
19,+++ (>50 = +++),370 (RLSTIRHLY; listed as Homo sapiens) [compound 370]
20,+++ (>50 = +++),359 (NKEINYFMY; listed as Homo sapiens) [compound 359]
21,++ (>20% = ++),372 (SRSDFEWVY; listed as Homo sapiens) [compound 372]
22,+ (>10% =+),343 (YFGNYFTYY; listed as Homo sapiens) [compound 343]
23,++++ (>75% = ++++),329 (NTDSMTLNNTAY; listed as Homo sapiens) [compound 329]
24,+++ (>50 = +++),279 (LMTVLLKY; listed as Homo sapiens) [compound 279]
25,++ (>20% = ++),283 (ETILVSSSY; listed as Homo sapiens) [compound 283]
26,+++ (>50 = +++),262 (NVKHFLNDLY; listed as Homo sapiens) [compound 262]
27,++++ (>75% = ++++),364 (DTGYLQLYY; listed as Homo sapiens) [compound 364]
28,+++ (>50 = +++),309 (EVDRNLIQY; listed as Homo sapiens) [compound 309]

# Further lines, the substance ahead of its results:
row,Substance,Peptide exchange
1,150 (FTTLSDLQTNMA; listed as Homo sapiens) [compound 150],++ (>20% = ++)
2,111 (TPIPFDKILY; listed as Homo sapiens) [compound 111],++ (>20% = ++)
3,78 (QLDSAVKNLY; listed as Homo sapiens) [compound 78],+++ (>50 = +++)
4,134 (SAPSSSGSPLY; listed as Homo sapiens) [compound 134],++ (>20% = ++)
5,241 (SLMVASLTY; listed as Homo sapiens) [compound 241],++ (>20% = ++)
6,144 (RTIEGDFLW; listed as Homo sapiens) [compound 144],++ (>20% = ++)
7,97 (FPAPPAHWFY; listed as Homo sapiens) [compound 97],++ (>20% = ++)
8,227 (ESAPKEVSRY; listed as Homo sapiens) [compound 227],++ (>20% = ++)
9,169 (TVDNANILL; listed as Homo sapiens) [compound 169],++ (>20% = ++)
10,100 (TTSSAISWILY; listed as Homo sapiens) [compound 100],+++ (>50 = +++)
11,98 (NFSDLVFTY; listed as Homo sapiens) [compound 98],++ (>20% = ++)
12,179 (SSTDFTFASW; listed as Homo sapiens) [compound 179],+ (>10% =+)
13,254 (FLFNDALLY; listed as Homo sapiens) [compound 254],++++ (>75% = ++++)
14,152 (YLEDRPLSQ; listed as Homo sapiens) [compound 152],++ (>20% = ++)
15,105 (VVFDKSDLAKY; listed as Homo sapiens) [compound 105],++ (>20% = ++)
16,185 (NSDESADSEPHKY; listed as Homo sapiens) [compound 185],++++ (>75% = ++++)
17,41 (HSDLLEDSKY; listed as Homo sapiens) [compound 41],+++ (>50 = +++)
18,203 (LSQDELSKF; listed as Homo sapiens) [compound 203],++ (>20% = ++)
19,43 (ETEPERHLGSY; listed as Homo sapiens) [compound 43],+++ (>50 = +++)
20,151 (YEVDTKLLSL; listed as Homo sapiens) [compound 151],++ (>20% = ++)
21,72 (VTDSTTKIAY; listed as Homo sapiens) [compound 72],+++ (>50 = +++)
22,194 (CYTADNEMGY; listed as Homo sapiens) [compound 194],+++ (>50 = +++)
23,129 (STIDFRAGF; listed as Homo sapiens) [compound 129],++ (>20% = ++)

row,Substance,Peptide exchange
1,142 (IEKFAVLY; listed as Homo sapiens) [compound 142],+++ (>50 = +++)
2,160 (EVLGEEMYAY; listed as Homo sapiens) [compound 160],++ (>20% = ++)
3,236 (VLDSLLAQY; listed as Homo sapiens) [compound 236],++++ (>75% = ++++)
4,124 (FLKVTGYDKDDY; listed as Homo sapiens) [compound 124],++ (>20% = ++)
5,46 (RSDPGGGGLAYAAY; listed as Homo sapiens) [compound 46],++++ (>75% = ++++)
6,168 (VQPGETYTY; listed as Homo sapiens) [compound 168],+++ (>50 = +++)
7,233 (RINSATGQY; listed as Homo sapiens) [compound 233],++ (>20% = ++)
8,131 (LEDGIEQSAY; listed as Homo sapiens) [compound 131],++ (>20% = ++)
9,240 (EVLDSLLAQY; listed as Homo sapiens) [compound 240],++ (>20% = ++)
10,89 (EVYDGREHSAY; listed as Homo sapiens) [compound 89],++ (>20% = ++)
11,166 (YHRICELLSDY; listed as Homo sapiens) [compound 166],++++ (>75% = ++++)
12,39 (WSQSSSLMY; listed as Homo sapiens) [compound 39],++++ (>75% = ++++)
13,148 (GTKQWVHARY; listed as Homo sapiens) [compound 148],+ (>10% =+)
14,223 (NAVDVVPSSF; listed as Homo sapiens) [compound 223],+ (>10% =+)
15,252 (DTTSHTYLQY; listed as Homo sapiens) [compound 252],++ (>20% = ++)
16,4 (RIEAIRAEY; listed as Homo sapiens) [compound 4],++ (>20% = ++)
17,8 (TSRAANIPGY; listed as Homo sapiens) [compound 8],+ (>10% =+)
18,29 (TLEDLDNLYNY; listed as Homo sapiens) [compound 29],+++ (>50 = +++)
19,56 (VTEYAEEIYQY; listed as Homo sapiens) [compound 56],+++ (>50 = +++)
20,85 (SSDNYEHWLY; listed as Homo sapiens) [compound 85],++++ (>75% = ++++)
21,215 (DTLEAATSLY; listed as Homo sapiens) [compound 215],++ (>20% = ++)
22,128 (YTEFVDATFTK; listed as Homo sapiens) [compound 128],++++ (>75% = ++++)
23,115 (NEIDIHSIYFY; listed as Homo sapiens) [compound 115],++ (>20% = ++)
